Data reported in patent US20220401560A1, “PEPTIDE ENCAPSULATING FERRITIN” (Ajinomoto Co., Inc., priority 2019, published 2022).
Positions of bridges follow the written chain, without caps; N, C: chain ends. No end group written: not given here. *: point of attachment. Pent4ynoyl = C#CCCC(=O)*

Assays:
ferritin (FTH) [1] = target: T1, ferritin (FTH) (Homo sapiens, UniProt P02794); assay: Search for peptides capable of being encapsulated into ferritin by disassembly/reassembly process, LC-MS detection; design: key to encapsulation: “A” represents peptides with three times of confirmation of encapsulation.; “B” represents peptides with two times of confirmation of encapsulation or less.; “C” represents peptides without confirmation of encapsulation; details: for MS peak of peptide derived from peptide encapsulating ferritin: FTH, disassembly/reassembly process performed; for encapsulation: encapsulation into ferritin (FTH), three trials
T1 construct: made in house; host or cells: Escherichia coli BL21 (DE3), plasmid pET20-FTH
Procedure: Peptides capable of being encapsulated into ferritin by disassembly/reassembly process were searched. In the disassembly/reassembly process, 1 mL of a 50 mM glycine hydrochloride buffer (pH 2.3) containing FTH at a final concentration of 5 mg/mL and the peptide at a final concentration of 0.5 mM, was left to stand at room temperature for 15 minutes. Next, 310 μL of a 1 M Tris hydrochloride buffer (pH 9.0) was added for neutralization, and left to stand at room temperature for 3 hours. After the standing, 1.2 mL of a 50 mM Tris hydrochloride buffer (pH 8.0) was added, and centrifuged (at 15,000 rpm for one minute). Thereafter, 2.5 mL of its supernatant was injected into a desalting column PD-10 (Sephadex G-25 filled product, GE Healthcare Inc.) equilibrated with a 50 mM Tris hydrochloride buffer (pH 8) for the elusion with 3.0 mL of a 50 mM Tris hydrochloride buffer (pH 8.0) to separate non-encapsulated peptides and ferritin. A whole amount (3.0 mL) of the resulting solution was concentrated to 0.1 mL by centrifugal ultrafiltration using Vivaspin 20-100K (GE Healthcare Inc.). The operation of adding 10 mL of a 50 mM Tris hydrochloride buffer to the concentrated solution and then concentrating was repeated twice to remove peptides that were not removed by PD-10 to obtain 0.1 mL of a sample solution. For the LC-MS analysis, 50 p1 of a 1 M glycine hydrochloride buffer (pH 2.3) was added to 50 μL of the sample solution and then the resulting solution was left to stand at room temperature for 15 minutes. To the solution, 900 μL of ethanol was added. Next, the resulting solution was stirred vigorously and then centrifuged (at 15,000 rpm for five minutes) for collection of the supernatant. The supernatant was analyzed using LCMS-2020 (Shimadzu Corporation) as LC-MS, Inertsil (Registered trademark) as a column, ODS-3, particle diameter of 2 μm and 2.1 mm×50 mm (GL science). Thereafter, 10 μL of the sample injected into the column was eluded at a flow rate of 0.2 mL/min for 10 minutes such that a mixing ratio of a solution A (0.1% formic acid/99.9% acetonitrile) and a solution B (50% water/50% acetonitrile) is from 95:5 to 95:5.
The encapsulation of the peptide into ferritin was studied by comparing in terms of the amount of the peptide detected by LC/MS between the sample prepared by encapsulating the peptide into ferritin at the disassembly/reassembly process and the sample prepared simply by mixing ferritin with the peptide. For example, ClAc-FHC was eluted at a retention time of 0.8 minute. […] However, the peak was not observed for the sample prepared by simply mixing the peptide with ferritin without performing the disassembly/reassembly process (FIG. 12B). FIG. 13 to FIG. 17 illustrate LC-MS results for FTH in which the peptide was encapsulated at the disassembly/reassembly process.

ferritin (FTH) [2] = target: T1, ferritin (FTH); assay: Encapsulation of fluorescent dye-modified peptide into FTH, column chromatography with absorbance at 480 nm and LC-MS; details: absorbance at 480 nm at elution position of 24-mer FTH; LC-MS
Procedure: Of a 50 mM glycine hydrochloride buffer (pH 2.3) that contains FTH (chemical formula weight: 509,421) at a final concentration of 5 mg/mL and the peptide at a final concentration of 0.5 mM, 0.5 mL was left to stand at room temperature for 15 minutes. Next, 50 μL of a 1 M Tris hydrochloride buffer (pH 9.0) was added for neutralization, and the resulting solution was left to stand at room temperature for 3 hours. After the standing, the resulting solution was centrifuged (at 15,000 rpm for one minute). Then, the supernatant was collected and the volume was increased up to 3 mL with a 10 mM Tris hydrochloride buffer (pH 8). The resulting solution was injected into the HiPrep 26/60 Sephacryl S-300 HR column (GE Healthcare Inc.) equilibrated with a 10 mM Tris-HCl buffer (pH 8.0) to separate and purify 24-mer FTH by size at a flow rate of 1.3 mL/minute. The purified ferritin was analyzed using a HiPrep 16/60 Sephacryl S-300 HR column (GE Healthcare Inc.) equilibrated with a 10 mM Tris-HCl buffer (pH 8.0) at a flow rate of 0.5 mL/minute and confirmed as the absorbance at 480 nm unobservable from FTH only, at the same position as that of a peak of FTH.
The solution containing the FTH was concentrated to 0.25 mL by centrifugal ultrafiltration using Vivaspin 20-100K (GE Healthcare Inc.). […] For the LC-MS analysis, 50 μL of a 1 M glycine hydrochloride buffer (pH 2.3) was added to 50 μL of the sample solution and then the resulting solution was left to stand at room temperature for 15 minutes. To the solution 900 μL of ethanol was added. Next, the resulting solution was stirred vigorously and then centrifuged (at 15,000 rpm for five minutes) to collect its supernatant. The supernatant was analyzed using LCMS-2020 (Shimadzu Corporation) as LC-MS, inertsil (Registered trademark) ODS-3 with a particle diameter of 2 μm and 2.1 mm×50 mm (GL science) as a column. Into the column, 10 μL of the sample was injected, and eluded at a flow rate of 0.2 mL/min for 10 minutes such that a mixing ratio of a solution A (0.1% formic acid/99.9% acetonitrile) and a solution B (50% water/50% acetonitrile) was from 95:5 to 95:5. The concentration of the contained protein was determined using a protein assay CBB solution (Nacalai Tesque, Inc.) in terms of bovine albumin as a standard. The concentration of the encapsulated peptide was determined based on the absorbance at 480 nm of the fluorescent dye FAM to which PKC-F is modified.
First, the construction of FTH encapsulating two kinds of fluorescent dye-modified peptides [5(6)—FAM-[…] (SEQ ID NO: 10), FAM-SV40, chemical formula weight 1,516, and 5(6)—FAM-[…] […] (SEQ ID NO: 11), FAN-Np, chemical formula weight 384] was attempted. 0.5 mL of a 50 mM glycine hydrochloride buffer (pH 2.3) that contains FTH (chemical formula weight 509,421) at a final concentration of 5 mg/mL and a peptide at a final concentration of 0.5 mM, was left to stand at room temperature for 15 minutes. Next, 50 μL of a 1 M Tris hydrochloride buffer (pH 9.0) was added for neutralization, and the resulting solution was left to stand at room temperature for 3 hours. […] The absorbance at […] was confirmed at the same elusion position as that of ferritin 24-mer, for ferritin that was used for the operation to encapsulate FAM-SV40 therein. […] Next, the peptide amount of FAM-SV40 encapsulated in purified ferritin was quantified based on the 480 nm absorbance and by CBB staining with use of ferritin-amount-albumin as a standard.

T1 sequence (P02794 whole entry): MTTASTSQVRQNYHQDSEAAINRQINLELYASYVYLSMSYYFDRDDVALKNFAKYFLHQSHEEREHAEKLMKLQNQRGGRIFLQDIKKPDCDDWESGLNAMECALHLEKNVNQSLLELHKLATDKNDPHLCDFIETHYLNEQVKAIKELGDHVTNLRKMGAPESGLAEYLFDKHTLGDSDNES

Substance	MS peak of peptide derived from peptide encapsulating ferritin (ferritin (FTH) [1])	encapsulation (ferritin (FTH) [1])	encapsulation of peptide in FTH (ferritin (FTH) [2])
GGKRPARGGKRPAR (SEQ ID NO: 19) (Synthetic amino acid sequence of the peptide NRP-1-2 which is to be tested for encapsulation with ferritin) [linear peptide]	presence	A (“A” represents peptides with three times of confirmation of encapsulation.)	–
FBP0032: cyclic peptide with disulfide bond, X is 4-pentynoic acid (Pent4ynoyl-GQKGCKKTPKLASLSCTGF; disulfide 5-16 (inferred))	presence	A (“A” represents peptides with three times of confirmation of encapsulation.)	–
cyclo(PPYVPLII) (SEQ ID NO: 15) (cyclic; Synthetic amino acid sequence of the peptide Hymenistatin I which is to be tested for encapsulation with ferritin) [cyclic peptide purchased from Sigma-Aldrich, reference compound]	presence	B (“B” represents peptides with two times of confirmation of encapsulation or less.)	–
cyclo(RGDFV) (SEQ ID NO: 13) [cyloRGDfV, reference compound]	presence	B (“B” represents peptides with two times of confirmation of encapsulation or less.)	–
GIRLRGGIRLRGGIRLRG (SEQ ID NO: 22) (Synthetic amino acid sequence of the peptide GRP78-3 which is to be tested for encapsulation with ferritin) [linear peptide]	presence	B (“B” represents peptides with two times of confirmation of encapsulation or less.)	–
SPRGDLAVLGHKY (SEQ ID NO: 18) (Synthetic amino acid sequence of the peptide avb6 which is to be tested for encapsulation with ferritin) [ανβ6, linear peptide]	presence	B (“B” represents peptides with two times of confirmation of encapsulation or less.)	–
HTSD (SEQ ID NO: 12) [EGFR]	presence	A (“A” represents peptides with three times of confirmation of encapsulation.)	–
EEEEEEEEEE (SEQ ID NO: 16) [Ex10]	presence	A (“A” represents peptides with three times of confirmation of encapsulation.)	–
VLWLKNR (SEQ ID NO: 14) (Synthetic amino acid sequence of the peptide FGF3-FP16 which is to be tested for encapsulation with ferritin) [linear peptide]	presence	B (“B” represents peptides with two times of confirmation of encapsulation or less.)	–
FBP0033: cyclic peptide with disulfide bond, X is 4-pentynoic acid (Pent4ynoyl-GRPGCGPRKPRTPKKCGSH; disulfide 5-16 (inferred))	presence	A (“A” represents peptides with three times of confirmation of encapsulation.)	–
5(6)-FAM-CGGKRPAAIK KAGQAKKKKG (SEQ ID NO: 11) ({5(6)‑FAM}-CGGKRPAAIKKAGQAKKKKG) [FAM-Np, fluorescent dye-modified peptide, linear]	–	C	not encapsulated
RRRRRRRRRR (SEQ ID NO: 17) [Rx10]	–	C	–
Pakti-L1: cyclic peptide, cysteine sulfur bonded to acetyl group at N-terminus ({CH2CO}-YILVRNRLLRVDCG; thioether N-13)	presence	B (“B” represents peptides with two times of confirmation of encapsulation or less.)	–
cyclo (AS (D-Pro) PTWI (Dab) (Orn) (D-Dab)(Dab)W(Dab)(Dab)) [Murepavadin, reference compound]	presence	A (“A” represents peptides with three times of confirmation of encapsulation.)	–
QMARIPKRLARHQMAR (SEQ ID NO: 21) (Synthetic amino acid sequence of the peptide NS which is to be tested for encapsulation with ferritin) [linear peptide]	presence	A (“A” represents peptides with three times of confirmation of encapsulation.)	–
